The values below come from patent publication US20210147507A1, “METHODS TO AUGMENT OR ALTER SIGNAL TRANSDUCTION” (Bellicum Pharmaceuticals, Inc., priority 2017, published 2021).

For the assay, the system named is chimeric Caspase-9 polypeptide. Briefly: Caspase-9 mutant classes and basal activity (Table 5). In kind it is cell-based. As to conditions: Caspase-9 mutant class; for Basal Activity: basal (ligand-independent) signaling compared with unmodified chimeric Caspase-9; for IC50: ligand IC50 compared with unmodified chimeric Caspase-9. The text has this: Even though homo-dimerization of wild-type initiator Caspase-9 is energetically unfavorable, making them mostly monomers in solution [14-16], the low-level inherent basal activity of unprocessed Caspase-9 [15, 17] is enhanced in the presence of the Apaf-1-based “apoptosome”, its natural allosteric regulator [6]. Moreover, supra-physiological expression levels and/or co-localization could lead to proximity-driven dimerization, further enhancing basal activation. The modified cells of the present application may comprise nucleic acids coding for a chimeric Caspase-9 polypeptide having lower basal signaling activity. Polynucleotides comprising Caspase-9 mutants with lower basal signaling may be expressed in the modified cells used for cell therapy herein. In these examples, the modified cells may include a safety switch, comprising a polynucleotide encoding a lower basal signaling chimeric Caspase-9 polypeptide. In the event of an adverse event following administration of the modified cells comprising the chimeric signaling polypeptides or chimeric antigen receptors herein, Caspase-9 activity may be induced by administering the dimerizer to the patient, thus inducing apoptosis and clearance of some, or all of the modified cells. In some examples, the amount of dimerizer administered may be determined as an amount designed to remove the highest amount, at least 80% or 90% of the modified cells. In other examples, the amount of dimerizer administered may be determined as an amount designed to remove only a portion of the modified cells, in order to alleviate negative symptoms or conditions, while leaving a sufficient amount of therapeutic modified cells in the patient, in order to continue therapy. Methods for using chimeric Caspase-9 polypeptides to induce apoptosis are discussed in PCT Application Number PCT/US2011/037381 by Malcolm K. Brenner et al., titled Methods for Inducing Selective Apoptosis, filed May 20, 2011, and in U.S. patent application Ser. No. 13/112,739 by Malcolm K. Brenner et al., titled Methods for Inducing Selective Apoptosis, filed May 20, 2011, issued Jul. 28, 2015 as U.S. Pat. No. 9,089,520. Chimeric caspase polypeptides having modified basal activity are discussed in PCT Application Serial Number PCT/US2014/022004 by David Spencer et al., titled Modified Caspase Polypeptides and Uses Thereof, filed Mar. 7, 2014, published Oct. 9, 2014 as WO2014/164348, and in U.S. patent application Ser. No. 13/792,135 by David Spencer et al., titled Modified Caspase Polypeptides and Uses Thereof, filed Mar. 7, 2014; and in U.S. patent application Ser. No. 14/640,553 by Spencer et al., filed Mar. 6, 2015. Methods for inducing partial apoptosis of the therapeutic modified cells are discussed in PCT Application Number PCT/US14/040964 by Kevin Slawin et al., titled Methods for Inducing Partial Apoptosis Using Caspase Polypeptides, filed Jun. 4, 2014, published Dec. 11, 2014 as WO2014/197638, and in U.S. patent application Ser. No. 14/296,404 by Kevin Slawin et al., titled Methods for Inducing Partial Apoptosis Using Caspase Polypeptides, filed Jun. 4, 2014. These patent applications and publications are all incorporated by reference herein in their entireties.
chimeric Caspase-9 polypeptide, sequence (P62942 2-108 F37V limits assumed): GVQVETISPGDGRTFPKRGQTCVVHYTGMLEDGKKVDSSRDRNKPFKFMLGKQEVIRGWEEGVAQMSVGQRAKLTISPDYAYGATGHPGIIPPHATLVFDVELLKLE

B1: N405Qco (protein, UniProt P55211 1-416, looked up, variant N405Q)
chain: MDEADRRLLRRCRLRLVEELQVDQLWDALLSRELFRPHMIEDIQRAGSGSRRDQARQLIIDLETRGSQALPLFISCLEDTGQDMLASFLRTNRQAAKLSKPTLENLTPVVLRPEIRKPEVLRPETPRPVDIGSGGFGDVGALESLRGNADLAYILSMEPCGHCLIINNVNFCRESGLRTRTGSNIDCEKLRRRFSSLHFMVEVKGDLTAKKMVLALLELAQQDHGALDCCVVVILSHGCQASHLQFPGAVYGTDGCPVSVEKIVNIFNGTSCPSLGGKPKLFFIQACGGEQKDHGFEVASTSPEDESPGSNPEPDATPFQEGLRTFDQLDAISSLPTPSDIFVSYSTFPGFVSWRDPKSGSWYVETLDDIFEQWAHSEDLQSLLLRVANAVSVKGIYKQMPGCFQFLRKKLFFKTS
modifications: codon-optimized; in iC9 construct
As for B1, the “Basal Activity” value is “Decreased” and the IC50 entry was “higher IC50”.

B2: F406Y (protein)
chain: GFGDVGALESLRGNADLAYILSMEPCGHCLIINNVNFCRESGLRTRTGSNIDCEKLRRRFSSLHFMVEVKGDLTAKKMVLALLELARQDHGALDCCVVVILSHGCQASHLQFPGAVYGTDGCPVSVEKIVNIFNGTSCPSLGGKPKLFFIQACGGEQKDHGFEVASTSPEDESPGSNPEPDATPFQEGLRTFDQLDAISSLPTPSDIFVSYSTFPGFVSWRDPKSGSWYVETLDDIFEQWAHSEDLQSLLLRVANAVSVKGIYKQMPGCFNYLRKKLFFKTSASRA
For B2, the “Basal Activity” value is recorded as “Decreased” and the IC50 result is recorded as “higher IC50”.

B3: S307A (protein)
chain: GFGDVGALESLRGNADLAYILSMEPCGHCLIINNVNFCRESGLRTRTGSNIDCEKLRRRFSSLHFMVEVKGDLTAKKMVLALLELARQDHGALDCCVVVILSHGCQASHLQFPGAVYGTDGCPVSVEKIVNIFNGTSCPSLGGKPKLFFIQACGGEQKDHGFEVASTSPEDEAPGSNPEPDATPFQEGLRTFDQLDAISSLPTPSDIFVSYSTFPGFVSWRDPKSGSWYVETLDDIFEQWAHSEDLQSLLLRVANAVSVKGIYKQMPGCFNFLRKKLFFKTSASRA
With B3, the “Basal Activity” value is “Decreased” and the IC50 result is listed as “much higher”.

B4: D330A (protein)
chain: GFGDVGALESLRGNADLAYILSMEPCGHCLIINNVNFCRESGLRTRTGSNIDCEKLRRRFSSLHFMVEVKGDLTAKKMVLALLELARQDHGALDCCVVVILSHGCQASHLQFPGAVYGTDGCPVSVEKIVNIFNGTSCPSLGGKPKLFFIQACGGEQKDHGFEVASTSPEDESPGSNPEPDATPFQEGLRTFDQLAAISSLPTPSDIFVSYSTFPGFVSWRDPKSGSWYVETLDDIFEQWAHSEDLQSLLLRVANAVSVKGIYKQMPGCFNFLRKKLFFKTSASRA
B4: the “Basal Activity” value was “Decreased” and the IC50 entry is listed as “higher IC50”.

B5: D330E (protein)
chain: GFGDVGALESLRGNADLAYILSMEPCGHCLIINNVNFCRESGLRTRTGSNIDCEKLRRRFSSLHFMVEVKGDLTAKKMVLALLELARQDHGALDCCVVVILSHGCQASHLQFPGAVYGTDGCPVSVEKIVNIFNGTSCPSLGGKPKLFFIQACGGEQKDHGFEVASTSPEDESPGSNPEPDATPFQEGLRTFDQLEAISSLPTPSDIFVSYSTFPGFVSWRDPKSGSWYVETLDDIFEQWAHSEDLQSLLLRVANAVSVKGIYKQMPGCFNFLRKKLFFKTSASRA
For the molecule B5, the “Basal Activity” value is reported as “Decreased” and the IC50 result is “higher IC50”.

B6: F406T (protein)
chain: GFGDVGALESLRGNADLAYILSMEPCGHCLIINNVNFCRESGLRTRTGSNIDCEKLRRRFSSLHFMVEVKGDLTAKKMVLALLELARQDHGALDCCVVVILSHGCQASHLQFPGAVYGTDGCPVSVEKIVNIFNGTSCPSLGGKPKLFFIQACGGEQKDHGFEVASTSPEDESPGSNPEPDATPFQEGLRTFDQLDAISSLPTPSDIFVSYSTFPGFVSWRDPKSGSWYVETLDDIFEQWAHSEDLQSLLLRVANAVSVKGIYKQMPGCFNTLRKKLFFKTSASRA
In the case of B6, the “Basal Activity” value was “Decreased” and the IC50 entry is given as “much higher”.

B7: D315A (protein)
chain: GFGDVGALESLRGNADLAYILSMEPCGHCLIINNVNFCRESGLRTRTGSNIDCEKLRRRFSSLHFMVEVKGDLTAKKMVLALLELARQDHGALDCCVVVILSHGCQASHLQFPGAVYGTDGCPVSVEKIVNIFNGTSCPSLGGKPKLFFIQACGGEQKDHGFEVASTSPEDESPGSNPEPAATPFQEGLRTFDQLDAISSLPTPSDIFVSYSTFPGFVSWRDPKSGSWYVETLDDIFEQWAHSEDLQSLLLRVANAVSVKGIYKQMPGCFNFLRKKLFFKTSASRA
As to B7, the “Basal Activity” value was “Decreased” and the IC50 entry is listed as “much higher”.

B8: A316G (protein)
chain: GFGDVGALESLRGNADLAYILSMEPCGHCLIINNVNFCRESGLRTRTGSNIDCEKLRRRFSSLHFMVEVKGDLTAKKMVLALLELARQDHGALDCCVVVILSHGCQASHLQFPGAVYGTDGCPVSVEKIVNIFNGTSCPSLGGKPKLFFIQACGGEQKDHGFEVASTSPEDESPGSNPEPDGTPFQEGLRTFDQLDAISSLPTPSDIFVSYSTFPGFVSWRDPKSGSWYVETLDDIFEQWAHSEDLQSLLLRVANAVSVKGIYKQMPGCFNFLRKKLFFKTSASRA
Turning to B8, the “Basal Activity” value was “Decreased” and the IC50 entry is given as “much higher”.

B9: N405F (protein)
chain: GFGDVGALESLRGNADLAYILSMEPCGHCLIINNVNFCRESGLRTRTGSNIDCEKLRRRFSSLHFMVEVKGDLTAKKMVLALLELARQDHGALDCCVVVILSHGCQASHLQFPGAVYGTDGCPVSVEKIVNIFNGTSCPSLGGKPKLFFIQACGGEQKDHGFEVASTSPEDESPGSNPEPDATPFQEGLRTFDQLDAISSLPTPSDIFVSYSTFPGFVSWRDPKSGSWYVETLDDIFEQWAHSEDLQSLLLRVANAVSVKGIYKQMPGCFFFLRKKLFFKTSASRA
For the molecule B9, the “Basal Activity” value is recorded as “Decreased” and the IC50 entry is on record as “much higher”.

B10: F404T (protein)
chain: GFGDVGALESLRGNADLAYILSMEPCGHCLIINNVNFCRESGLRTRTGSNIDCEKLRRRFSSLHFMVEVKGDLTAKKMVLALLELARQDHGALDCCVVVILSHGCQASHLQFPGAVYGTDGCPVSVEKIVNIFNGTSCPSLGGKPKLFFIQACGGEQKDHGFEVASTSPEDESPGSNPEPDATPFQEGLRTFDQLDAISSLPTPSDIFVSYSTFPGFVSWRDPKSGSWYVETLDDIFEQWAHSEDLQSLLLRVANAVSVKGIYKQMPGCTNFLRKKLFFKTSASRA
As for B10, the “Basal Activity” value is “Decreased” and the IC50 entry is “much higher”.

B11: F319W (protein)
chain: GFGDVGALESLRGNADLAYILSMEPCGHCLIINNVNFCRESGLRTRTGSNIDCEKLRRRFSSLHFMVEVKGDLTAKKMVLALLELARQDHGALDCCVVVILSHGCQASHLQFPGAVYGTDGCPVSVEKIVNIFNGTSCPSLGGKPKLFFIQACGGEQKDHGFEVASTSPEDESPGSNPEPDATPWQEGLRTFDQLDAISSLPTPSDIFVSYSTFPGFVSWRDPKSGSWYVETLDDIFEQWAHSEDLQSLLLRVANAVSVKGIYKQMPGCFNFLRKKLFFKTSASRA
Turning to B11, the “Basal Activity” value was “Decreased” and the IC50 result was “much higher”.

B12: F404W (protein)
chain: GFGDVGALESLRGNADLAYILSMEPCGHCLIINNVNFCRESGLRTRTGSNIDCEKLRRRFSSLHFMVEVKGDLTAKKMVLALLELARQDHGALDCCVVVILSHGCQASHLQFPGAVYGTDGCPVSVEKIVNIFNGTSCPSLGGKPKLFFIQACGGEQKDHGFEVASTSPEDESPGSNPEPDATPFQEGLRTFDQLDAISSLPTPSDIFVSYSTFPGFVSWRDPKSGSWYVETLDDIFEQWAHSEDLQSLLLRVANAVSVKGIYKQMPGCWNFLRKKLFFKTSASRA
For the molecule B12, the “Basal Activity” value is on record as “Decreased” and the IC50 entry is “much higher”.
